Data reported in patent publication US20220332804A1 (CSL INNOVATION, published 2022).

Tests used:
Experiment in all cases: SPR, KD relative to WT C2;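 further: biacore SPR at 37 °C, anti-C2 mAbs captured on anti-human IgG chips with alanine or serine point mutants of C2 as analyte, KD from 1:1 fit compared with wild-type C2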
human C2 R519A = biological target: T1, human C2 R519A (human, UniProt P06681 21-752)
T1 sequence: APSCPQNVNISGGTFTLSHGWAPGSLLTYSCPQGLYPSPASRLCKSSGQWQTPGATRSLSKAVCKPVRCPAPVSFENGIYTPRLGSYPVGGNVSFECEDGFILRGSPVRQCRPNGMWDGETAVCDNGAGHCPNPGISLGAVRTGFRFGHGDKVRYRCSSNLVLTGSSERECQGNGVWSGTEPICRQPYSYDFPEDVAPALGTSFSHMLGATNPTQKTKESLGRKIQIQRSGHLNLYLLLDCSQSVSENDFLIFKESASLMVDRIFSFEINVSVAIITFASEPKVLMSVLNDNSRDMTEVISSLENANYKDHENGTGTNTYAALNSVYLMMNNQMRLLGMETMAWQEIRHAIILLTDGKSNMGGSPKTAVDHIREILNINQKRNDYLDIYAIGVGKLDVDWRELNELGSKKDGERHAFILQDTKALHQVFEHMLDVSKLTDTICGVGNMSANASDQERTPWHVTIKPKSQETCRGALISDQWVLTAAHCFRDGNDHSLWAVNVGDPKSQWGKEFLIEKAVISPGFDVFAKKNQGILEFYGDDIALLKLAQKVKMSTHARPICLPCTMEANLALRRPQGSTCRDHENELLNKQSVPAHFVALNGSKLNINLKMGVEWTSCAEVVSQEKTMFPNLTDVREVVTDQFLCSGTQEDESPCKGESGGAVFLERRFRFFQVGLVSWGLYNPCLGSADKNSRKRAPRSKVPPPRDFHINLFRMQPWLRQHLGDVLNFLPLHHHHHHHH

human C2 D419A = biological target: T2, human C2 D419A (human, UniProt P06681 21-752)
T2 sequence: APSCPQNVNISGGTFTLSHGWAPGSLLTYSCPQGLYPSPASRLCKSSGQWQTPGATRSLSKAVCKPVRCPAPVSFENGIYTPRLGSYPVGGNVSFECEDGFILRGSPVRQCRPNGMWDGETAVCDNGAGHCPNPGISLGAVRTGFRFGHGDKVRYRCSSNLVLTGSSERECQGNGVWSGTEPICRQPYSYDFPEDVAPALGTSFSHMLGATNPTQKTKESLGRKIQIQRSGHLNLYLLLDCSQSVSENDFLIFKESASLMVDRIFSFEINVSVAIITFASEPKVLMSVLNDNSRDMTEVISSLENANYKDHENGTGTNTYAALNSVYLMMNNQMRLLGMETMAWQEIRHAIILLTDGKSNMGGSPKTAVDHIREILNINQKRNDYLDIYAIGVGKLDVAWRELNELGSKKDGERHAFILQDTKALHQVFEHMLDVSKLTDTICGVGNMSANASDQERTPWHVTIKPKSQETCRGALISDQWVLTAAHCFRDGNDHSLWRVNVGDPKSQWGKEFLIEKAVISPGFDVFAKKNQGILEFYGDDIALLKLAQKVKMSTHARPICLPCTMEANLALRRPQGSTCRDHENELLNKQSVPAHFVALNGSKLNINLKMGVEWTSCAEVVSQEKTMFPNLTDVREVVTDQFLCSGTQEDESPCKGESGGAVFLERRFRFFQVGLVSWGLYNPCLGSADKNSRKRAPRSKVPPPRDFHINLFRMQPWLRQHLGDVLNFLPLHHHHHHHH

human C2 E450A = biological target: T3, human C2 E450A (human, UniProt P06681 21-752)
T3 sequence: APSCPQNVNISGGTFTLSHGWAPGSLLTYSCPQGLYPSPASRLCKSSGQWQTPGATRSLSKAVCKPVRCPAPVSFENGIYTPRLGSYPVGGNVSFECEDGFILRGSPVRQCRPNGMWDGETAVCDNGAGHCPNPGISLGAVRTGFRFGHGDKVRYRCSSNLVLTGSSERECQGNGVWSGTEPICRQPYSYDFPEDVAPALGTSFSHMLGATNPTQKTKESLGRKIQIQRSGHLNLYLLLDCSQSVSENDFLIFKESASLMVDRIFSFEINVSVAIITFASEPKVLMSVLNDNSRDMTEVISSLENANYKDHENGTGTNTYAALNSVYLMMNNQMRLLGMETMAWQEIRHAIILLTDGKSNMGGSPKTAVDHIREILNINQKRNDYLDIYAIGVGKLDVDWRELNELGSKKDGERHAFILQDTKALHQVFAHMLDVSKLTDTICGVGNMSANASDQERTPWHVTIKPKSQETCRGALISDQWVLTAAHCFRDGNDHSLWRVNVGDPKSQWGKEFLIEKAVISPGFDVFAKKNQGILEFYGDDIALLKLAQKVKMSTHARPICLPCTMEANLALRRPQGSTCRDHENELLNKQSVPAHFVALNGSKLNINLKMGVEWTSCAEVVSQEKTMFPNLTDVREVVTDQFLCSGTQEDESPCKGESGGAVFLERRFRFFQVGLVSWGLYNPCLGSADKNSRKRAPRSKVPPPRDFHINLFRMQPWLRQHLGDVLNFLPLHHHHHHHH

human C2 E275A = biological target: T4, human C2 E275A (human, UniProt P06681 21-752)
T4 sequence: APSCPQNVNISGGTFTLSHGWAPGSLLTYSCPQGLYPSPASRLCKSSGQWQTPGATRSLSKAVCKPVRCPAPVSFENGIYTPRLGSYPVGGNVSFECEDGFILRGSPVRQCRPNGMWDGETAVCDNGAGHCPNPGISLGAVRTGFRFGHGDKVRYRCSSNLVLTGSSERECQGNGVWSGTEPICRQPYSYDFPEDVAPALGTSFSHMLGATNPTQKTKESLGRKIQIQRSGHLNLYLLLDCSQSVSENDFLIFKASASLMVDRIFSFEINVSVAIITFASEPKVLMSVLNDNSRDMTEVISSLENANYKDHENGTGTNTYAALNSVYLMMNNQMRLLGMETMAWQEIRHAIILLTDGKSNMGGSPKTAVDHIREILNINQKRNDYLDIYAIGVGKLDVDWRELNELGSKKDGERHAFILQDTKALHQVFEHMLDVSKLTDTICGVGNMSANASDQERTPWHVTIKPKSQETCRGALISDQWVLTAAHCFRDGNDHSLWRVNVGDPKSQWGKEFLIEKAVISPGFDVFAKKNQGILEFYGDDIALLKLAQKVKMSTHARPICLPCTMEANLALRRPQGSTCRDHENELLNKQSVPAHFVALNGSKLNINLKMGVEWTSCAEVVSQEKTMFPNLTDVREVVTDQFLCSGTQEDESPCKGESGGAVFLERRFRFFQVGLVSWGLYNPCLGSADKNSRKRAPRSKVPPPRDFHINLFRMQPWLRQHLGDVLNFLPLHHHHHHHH

B1: RF16-242 (antibody, human IgG4 S228P, lambda, V domains shown)
VH: EVQLLQSGAEVKKPGESLKISCKGSGYSFTSYWIGWVRQMPGKGLEWMGIIYPGDSDTRYSPSFQGQVTISADKSISTAYLQWSSLKASDTAMYYCARRGHYGDYFDYWGQGTLVTVSS
VL: SYELTQPPSVSVSPGQTARITCSGDALPKKYAYWYHQKSGQAPVLVIYEDRRRPSEIPERFSGSSSGTMATLTITGAQVEDEGVYFCYSRDRAGNQRVFGGGTQLTVLG
notes: pH-dependent anti-C2 antibody from a phage display library
B1 gave a Fold diff (human C2 R519A) of 1 fold, a Fold diff (human C2 D419A) of 2 fold and a Fold diff (human C2 E450A) of 3 fold. For the same binder, the Fold diff (human C2 E275A) was 6 fold.
